Source: publication doi:10.1101/2025.10.22.684016

Target: mCherry-TurboID-CD9
Assay: proximity labelling + proximity ligation

“Gabrb3 (from UniProt P63080 26-473) (natural protein)” gave a PLA puncta (Streptavidin–Gabrb3), APP-TB mice of 1530 puncta and a PLA puncta (Streptavidin–Gabrb3), WT-TB mice of 1500 puncta.

“Ncam1 (from UniProt P13595 20-1115) (natural protein)” was tested, and the PLA puncta (Streptavidin–Ncam1), APP-TB mice was 1790 puncta and the PLA puncta (Streptavidin–Ncam1), WT-TB mice was 1260 puncta.

B1: Gad1 (enzyme)
chain: MASSTPSPATSSNAGADPNTTNLRPTTYDTWCGVAHGCTRKLGLKICGFLQRTNSLEEKSRLVSAFRERQSSKNLLSCENSDQGARFRRTETDFSNLFAQDLLPAKNGEEQTAQFLLEVVDILLNYVRKTFDRSTKVLDFHHPHQLLEGMEGFNLELSDHPESLEQILVDCRDTLKYGVRTGHPRFFNQLSTGLDIIGLAGEWLTSTANTNMFTYEIAPVFVLMEQITLKKMREIVGWSNKDGDGIFSPGGAISNMYSIMAARYKYFPEVKTKGMAAVPKLVLFTSEHSHYSIKKAGAALGFGTDNVILIKCNERGKIIPADLEAKILDAKQKGYVPLYVNATAGTTVYGAFDPIQEIADICEKYNLWLHVDAAWGGGLLMSRKHRHKLSGIERANSVTWNPHKMMGVLLQCSAILVKEKGILQGCNQMCAGYLFQPDKQYDVSYDTGDKAIQCGRHVDIFKFWLMWKAKGTVGFENQINKCLELADYLYAKIKNREEFEMVFDGEPEHTNVCFWYIPQSLRGVPDSPERREKLHRVAPKIKALMMESGTTMVGYQPQGDKANFFRMVISNPAATQSDIDFLIEEIERLGQDL
B1 showed a PLA puncta (Streptavidin–Gad1), APP-TB mice of 2120 puncta.
